{"source": "patent US20260234232A1", "about": "(QUAERITE BIOPHARM RESEARCH BEIJING, published 2026)", "binders": {"B1": {"name": "2V15-9S (VHH)", "chain": "QLQLVESGGGSVQPGGSLRLSCEVSGRTFASYTMGWFRQAPGKEREFVVAISKGGYKYDSVSLEARFTISKDNTKNTVYLQMNSLKPEDTAVYYCAGTRAYGSSRLRLAETYEYWGQGTQVTVSSSSSSSSSSSQLQLVESGGGSVQPGGSLRLSCEVSGRTFASYTMGWFRQAPGKEREFVVAISKGGYKYDSVSLEARFTISKDNTKNTVYLQMNSLKPEDTAVYYCAGTRAYGSSRLRLAETYEYWGQGTQVTVSS", "notes": "Tandem bivalent nanobody"}, "B2": {"name": "2V1-(AP)5 (VHH)", "chain": "QLQLVESGGGSVQPGGSLRLSCEVSGRTFSSYTMGWFRQAPGKEREFVVAISKGGYKYDSVSLEARFTISKDNTKNTVYLQMNSLKPEDTAVYYCAATRAYGSSRLRLADTYEYWGQGTQVTVSSPDSAPAPAPAPAPDGSSQLQLVESGGGSVQPGGSLRLSCEVSGRTFSSYTMGWFRQAPGKEREFVVAISKGGYKYDSVSLEARFTISKDNTKNTVYLQMNSLKPEDTAVYYCAATRAYGSSRLRLADTYEYWGQGTQVTVSS", "notes": "Tandem bivalent nanobody"}, "B3": {"name": "2V1-(AP)10 (VHH)", "chain": "QLQLVESGGGSVQPGGSLRLSCEVSGRTFSSYTMGWFRQAPGKEREFVVAISKGGYKYDSVSLEARFTISKDNTKNTVYLQMNSLKPEDTAVYYCAATRAYGSSRLRLADTYEYWGQGTQVTVSSPDSAPAPAPAPAPAPAPAPAPAPDGSSQLQLVESGGGSVQPGGSLRLSCEVSGRTFSSYTMGWFRQAPGKEREFVVAISKGGYKYDSVSLEARFTISKDNTKNTVYLQMNSLKPEDTAVYYCAATRAYGSSRLRLADTYEYWGQGTQVTVSS", "notes": "Tandem bivalent nanobody"}, "B4": {"name": "2V1-EAAAK-Rigid (VHH)", "chain": "QLQLVESGGGSVQPGGSLRLSCEVSGRTFSSYTMGWFRQAPGKEREFVVAISKGGYKYDSVSLEARFTISKDNTKNTVYLQMNSLKPEDTAVYYCAATRAYGSSRLRLADTYEYWGQGTQVTVSSLAEAAAKEAAAKEAAAKEAAAKEAAAKAAAQLQLVESGGGSVQPGGSLRLSCEVSGRTFSSYTMGWFRQAPGKEREFVVAISKGGYKYDSVSLEARFTISKDNTKNTVYLQMNSLKPEDTAVYYCAATRAYGSSRLRLADTYEYWGQGTQVTVSS", "notes": "Tandem bivalent nanobody"}, "B5": {"name": "2V1-EAAAK-Turn (VHH)", "chain": "QLQLVESGGGSVQPGGSLRLSCEVSGRTFSSYTMGWFRQAPGKEREFVVAISKGGYKYDSVSLEARFTISKDNTKNTVYLQMNSLKPEDTAVYYCAATRAYGSSRLRLADTYEYWGQGTQVTVSSPDSEAAAKEAAAKEAAAKEAAAKEAAAKPDGSSQLQLVESGGGSVQPGGSLRLSCEVSGRTFSSYTMGWFRQAPGKEREFVVAISKGGYKYDSVSLEARFTISKDNTKNTVYLQMNSLKPEDTAVYYCAATRAYGSSRLRLADTYEYWGQGTQVTVSS", "notes": "Tandem bivalent nanobody"}, "B6": {"name": "2V15-EAAAK-Turn (VHH)", "chain": "B5 chain with S30A, A97G, D110E, S188A, A255G, D268E", "notes": "Tandem bivalent nanobody"}, "B7": {"name": "2V15-20S (VHH)", "chain": "QLQLVESGGGSVQPGGSLRLSCEVSGRTFASYTMGWFRQAPGKEREFVVAISKGGYKYDSVSLEARFTISKDNTKNTVYLQMNSLKPEDTAVYYCAGTRAYGSSRLRLAETYEYWGQGTQVTVSSSSSSSSSSSSSSSSSSSSSSQLQLVESGGGSVQPGGSLRLSCEVSGRTFASYTMGWFRQAPGKEREFVVAISKGGYKYDSVSLEARFTISKDNTKNTVYLQMNSLKPEDTAVYYCAGTRAYGSSRLRLAETYEYWGQGTQVTVSS", "notes": "Tandem bivalent nanobody"}, "B8": {"name": "2V15-20GS (VHH)", "chain": "QLQLVESGGGSVQPGGSLRLSCEVSGRTFASYTMGWFRQAPGKEREFVVAISKGGYKYDSVSLEARFTISKDNTKNTVYLQMNSLKPEDTAVYYCAGTRAYGSSRLRLAETYEYWGQGTQVTVSSGGGGSGGGSGGGSGGGSGGSQLQLVESGGGSVQPGGSLRLSCEVSGRTFASYTMGWFRQAPGKEREFVVAISKGGYKYDSVSLEARFTISKDNTKNTVYLQMNSLKPEDTAVYYCAGTRAYGSSRLRLAETYEYWGQGTQVTVSS", "notes": "Tandem bivalent nanobody"}, "B9": {"name": "2V1-30GS (VHH)", "chain": "QLQLVESGGGSVQPGGSLRLSCEVSGRTFSSYTMGWFRQAPGKEREFVVAISKGGYKYDSVSLEARFTISKDNTKNTVYLQMNSLKPEDTAVYYCAATRAYGSSRLRLADTYEYWGQGTQVTVSSGGGGSGGGSGGGGSGGGSGGGSGGGSGGGSQLQLVESGGGSVQPGGSLRLSCEVSGRTFSSYTMGWFRQAPGKEREFVVAISKGGYKYDSVSLEARFTISKDNTKNTVYLQMNSLKPEDTAVYYCAATRAYGSSRLRLADTYEYWGQGTQVTVSS", "notes": "Tandem bivalent nanobody"}, "B10": {"name": "2V1-39GS (VHH)", "chain": "QLQLVESGGGSVQPGGSLRLSCEVSGRTFSSYTMGWFRQAPGKEREFVVAISKGGYKYDSVSLEARFTISKDNTKNTVYLQMNSLKPEDTAVYYCAATRAYGSSRLRLADTYEYWGQGTQVTVSSGGGGSGGGSGGGGSGGGGSGGGGSGGGGSGGGGSGGGGSQLQLVESGGGSVQPGGSLRLSCEVSGRTFSSYTMGWFRQAPGKEREFVVAISKGGYKYDSVSLEARFTISKDNTKNTVYLQMNSLKPEDTAVYYCAATRAYGSSRLRLADTYEYWGQGTQVTVSS", "notes": "Tandem bivalent nanobody"}, "B11": {"name": "2V1-3A (VHH)", "chain": "QLQLVESGGGSVQPGGSLRLSCEVSGRTFSSYTMGWFRQAPGKEREFVVAISKGGYKYDSVSLEARFTISKDNTKNTVYLQMNSLKPEDTAVYYCAATRAYGSSRLRLADTYEYWGQGTQVTVSSAAAQLQLVESGGGSVQPGGSLRLSCEVSGRTFSSYTMGWFRQAPGKEREFVVAISKGGYKYDSVSLEARFTISKDNTKNTVYLQMNSLKPEDTAVYYCAATRAYGSSRLRLADTYEYWGQGTQVTVSS", "notes": "Tandem bivalent nanobody"}, "B12": {"name": "2V1-3GS (VHH)", "chain": "B11 chain with A126G, A127G, A128S", "notes": "Tandem bivalent nanobody"}, "B13": {"name": "2V1-NL (VHH)", "chain": "QLQLVESGGGSVQPGGSLRLSCEVSGRTFSSYTMGWFRQAPGKEREFVVAISKGGYKYDSVSLEARFTISKDNTKNTVYLQMNSLKPEDTAVYYCAATRAYGSSRLRLADTYEYWGQGTQVTVSSQLQLVESGGGSVQPGGSLRLSCEVSGRTFSSYTMGWFRQAPGKEREFVVAISKGGYKYDSVSLEARFTISKDNTKNTVYLQMNSLKPEDTAVYYCAATRAYGSSRLRLADTYEYWGQGTQVTVSS", "notes": "Tandem bivalent nanobody; also called bivalent V1 without a linker"}, "B14": {"name": "2V1-6A (VHH)", "chain": "QLQLVESGGGSVQPGGSLRLSCEVSGRTFSSYTMGWFRQAPGKEREFVVAISKGGYKYDSVSLEARFTISKDNTKNTVYLQMNSLKPEDTAVYYCAATRAYGSSRLRLADTYEYWGQGTQVTVSSAAAAAAQLQLVESGGGSVQPGGSLRLSCEVSGRTFSSYTMGWFRQAPGKEREFVVAISKGGYKYDSVSLEARFTISKDNTKNTVYLQMNSLKPEDTAVYYCAATRAYGSSRLRLADTYEYWGQGTQVTVSS", "notes": "Tandem bivalent nanobody"}}, "key": {"human VEGFA165 [1]": {"biological_target": "T1, human VEGFA165 (human, UniProt P15692-4 27-191)", "T1 construct": "Bought protein from two suppliers, treated as one molecule; the supplier is named under assay; also called antigen VEGFA", "T1 sequence (P15692 other isoform, or with tags, fused parts or gaps limits assumed)": "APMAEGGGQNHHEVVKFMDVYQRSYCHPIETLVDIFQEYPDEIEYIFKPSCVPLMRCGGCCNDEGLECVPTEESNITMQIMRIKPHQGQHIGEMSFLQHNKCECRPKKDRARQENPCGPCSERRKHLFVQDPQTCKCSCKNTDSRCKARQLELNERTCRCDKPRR", "assay": "ELISA, coated human VEGFA165, anti-His detection", "procedure": "Antigen human VEGFA165 (label-free, purchased from Sino Biological, Cat. No.: HPLC-10008-HNAH, hereinafter referred to as VEGFA) was diluted with ELISA coating buffer to a final concentration of 0.3 μg/mL and added to a microplate at 100 μL/well for coating at 4° C. overnight. […] The solution used for antibody dilution was PBS containing 0.1% Tween-20 (pH 7.4), i.e., PBST. After being incubated at 37° C. for 1 h, the microplate was washed 3 times with PBST, and a dilution of His-Tag murine monoclonal antibody (purchased from Proteintech, Cat. No.: 66005-1-Ig) was added. The plate was further incubated at 37° C. for 1 h and washed again. Subsequently, a dilution of HRP-labeled goat anti-mouse IgG antibody (HRP-conjugated Affinipure Goat Anti-Mouse IgG (H+L), purchased from Proteintech, Cat. No.: SA00001-1) was added, and the plate was incubated at room temperature for 45 min. After the plate was washed, 100 μL of TMB (purchased from Tiangen Biotech, Cat. No.: PA107-01) was added to each well for color development at 37° C. for 15 min, followed by the addition of 50 μL of stopping solution. The absorbance at 450 nm (OD450) was measured using a microplate reader."}, "human VEGFA165 [2]": {"biological_target": "T1, human VEGFA165", "assay": "competitive ELISA, coated VEGFA, competitor VEGFR2-ECD-Fc 1 nM"}}, "note": "Substitutions are numbered along the chain they refer to."}
{"binder": "B1", "values": [{"measurement": "EC50", "setting": "human VEGFA165 [1]", "value": 0.21, "unit": "nM"}, {"measurement": "IC50", "setting": "human VEGFA165 [2]", "value": 3.53, "unit": "nM"}, {"measurement": "Maximum inhibition rate (%)", "setting": "human VEGFA165 [2]", "value": 88.8, "unit": "%"}]}
{"binder": "B2", "values": [{"measurement": "EC50", "setting": "human VEGFA165 [1]", "value": 0.19, "unit": "nM"}]}
{"binder": "B3", "values": [{"measurement": "EC50", "setting": "human VEGFA165 [1]", "value": 0.18, "unit": "nM"}]}
{"binder": "B4", "values": [{"measurement": "EC50", "setting": "human VEGFA165 [1]", "value": 0.22, "unit": "nM"}]}
{"binder": "B5", "values": [{"measurement": "EC50", "setting": "human VEGFA165 [1]", "value": 0.31, "unit": "nM"}, {"measurement": "IC50", "setting": "human VEGFA165 [2]", "value": 1.56, "unit": "nM"}, {"measurement": "Maximum inhibition rate (%)", "setting": "human VEGFA165 [2]", "value": 96.8, "unit": "%"}]}
{"binder": "B6", "values": [{"measurement": "EC50", "setting": "human VEGFA165 [1]", "value": 0.33, "unit": "nM"}, {"measurement": "IC50", "setting": "human VEGFA165 [2]", "value": 1.76, "unit": "nM"}, {"measurement": "Maximum inhibition rate (%)", "setting": "human VEGFA165 [2]", "value": 96.7, "unit": "%"}]}
{"binder": "B7", "values": [{"measurement": "EC50", "setting": "human VEGFA165 [1]", "value": 0.43, "unit": "nM"}, {"measurement": "IC50", "setting": "human VEGFA165 [2]", "value": 4.38, "unit": "nM"}, {"measurement": "Maximum inhibition rate (%)", "setting": "human VEGFA165 [2]", "value": 89.8, "unit": "%"}]}
{"binder": "B8", "values": [{"measurement": "EC50", "setting": "human VEGFA165 [1]", "value": 0.28, "unit": "nM"}, {"measurement": "IC50", "setting": "human VEGFA165 [2]", "value": 2.03, "unit": "nM"}, {"measurement": "Maximum inhibition rate (%)", "setting": "human VEGFA165 [2]", "value": 94.2, "unit": "%"}]}
{"binder": "B9", "values": [{"measurement": "EC50", "setting": "human VEGFA165 [1]", "value": 0.22, "unit": "nM"}]}
{"binder": "B10", "values": [{"measurement": "EC50", "setting": "human VEGFA165 [1]", "value": 0.18, "unit": "nM"}]}
{"binder": "B11", "values": [{"measurement": "EC50", "setting": "human VEGFA165 [1]", "value": 0.25, "unit": "nM"}]}
{"binder": "B12", "values": [{"measurement": "IC50", "setting": "human VEGFA165 [2]", "value": 3, "unit": "nM"}, {"measurement": "Maximum inhibition rate (%)", "setting": "human VEGFA165 [2]", "value": 91, "unit": "%"}]}
{"binder": "B13", "values": [{"measurement": "EC50", "setting": "human VEGFA165 [1]", "value": 0.29, "unit": "nM"}]}
{"binder": "B14", "values": [{"measurement": "EC50", "setting": "human VEGFA165 [1]", "value": 0.33, "unit": "nM"}]}
